Data on 2 molecules can be found in paper PMC11776367, “Biochemical and Structural Characterisation of a Bacterial Lactoperoxidase” (Chembiochem, 2024).

One may read the Km as the concentration of substrate that gives half-maximal velocity. For orientation: kcat means the number of substrate molecules converted per active site and unit of time at saturation. Usually kcat/Km stands for the turnover number divided by the Michaelis constant.

Holding throughout (assay): purified protein
Conditions in all cases: 0.5 mM H2O2, 50 mM KPi, 150 mM NaCl, pH 7.0, 25 °C

One data set relates to I.
The next data set relates to COc1ccccc1O.
Substrate in data set [1]: COc1cccc(OC)c1O
The data set is classed as biochemical, cyanobacterium TDX16.

Substrate in data set [2]: I
The data set is classed as biochemical, cyanobacterium TDX16.

Substrate in data set [3]: COc1ccccc1O
The data set is classed as biochemical, cyanobacterium TDX16.

bovine LPO (Bos taurus): in the data set on I, the Km was determined as 14 mM, the turnover number (kcat) was 206 s⁻¹ and the kcat/Km came out at 15000 M⁻¹ s⁻¹. In the data set on COc1ccccc1O, the Km was found to be 22 mM, the kcat was 10 s⁻¹ and the kcat/Km amounted to 500 M⁻¹ s⁻¹.

B1: CyanoPOX (cyanobacterium TDX16) (protein)
chain: AQNRTIDGTDNNLSHNVWGSTNQHLDRAGPAAYADGMSMPAGGSRPSARAVSNGIAAQTGSMLNDRMLSDWVWQWGQFLDHDLDLTDAASPAESFPIPVPMGDPFFDPFNTGTQTIGLSRSAYDPATGSVDARQQMNQITSWIDASNVYGSDMTRANALRTMSGGRLATSAGDLLPFNTGGLPNAGGTSPSLFLAGDVRSNEQSGLAAVHTLFVREHNRLADQIAAANPGMGDEDIYQQARKIVGAQMQIITYNEFLPALLGSAAPSPMSIGYDDSINPNIMNEFANACYRVGHTMLSPTILRLDNAGNVIPHGNLALQDAFFNPNRIINEGGIAPILKGLASQAMQEIDNKIVDDVRNFLFGPPGSGGLDLASLNIQRGRDHGLPDYNSTRVMMGLTSVSSFADISSDPAVQAALMSLYGTVNDIDLWVGALAEDHLAGSSVGELIAAVLGEQFTRLRDGDRYWYERDDFFVNNPSLLAELQATRLSDIIRRNSDITNIQDNVFLIPEPATLGLLMFGAAFLRKRRS
notes: Predicted protein 556 residues; synthetic codon-optimised gene, His-tagged (calculated 58 kDa), E. coli NEB10beta, monomer
For the molecule B1, in “purified protein [1]”, the Km is 35 mM, the kcat was determined as 620 s⁻¹ and the kcat/Km was found to be 18000 M⁻¹ s⁻¹. In addition, in the data set “purified protein [2]”, the Km is given as 7 mM, the kcat stood at 885 s⁻¹ and the kcat/Km came to 126000 M⁻¹ s⁻¹. Moreover, in the data set “purified protein [3]”, the Km stood at 59 mM, the kcat is 135 s⁻¹ and the specificity constant (kcat/Km) was 2000 M⁻¹ s⁻¹.
